Values joined by “and” are separate entries in the source; they are usually repeats but may differ in a detail not shown here. Equal entries are not always repeated.
Conditions: whole UniProt chain shown
[1] = Homo sapiens, pH 7, Thermal, DSC, Potassium phosphate buffer, NaCl, reversible: yes
[2] = Homo sapiens, pH 8, 25 °C, GdnHCl, CD, Tris-Hcl, transition: 2
[3] = Homo sapiens, pH 8, 25 °C, GdnHCl, fluorescence, Tris-Hcl, transition: 2
[4] = Hordeum vulgare, pH 6.3, 25 °C, GdnHCl, DSC, MES-NaOH 50 mM, reversible: yes
[5] = Hordeum vulgare, pH 6.3, 25 °C, GdnHCl, Fluorescence, Sodium phosphate 20 mM
[6] = Hordeum vulgare, pH 7, 25 °C, GdnHCl, CD, Sodium phosphate 10 mM, reversible: yes
[7] = Hordeum vulgare, pH 7, 30 °C, GdnHCl, Fluorescence, MOPS 50 mM
[8] = Hordeum vulgare, pH 7.4, 25 °C, GdnHCl, CD, Tris 50 mM
[9] = Homo sapiens, pH 6.5, 25 °C, Urea, CD, Sodium phosphate 20 mM, NaCl 100 mM
[10] = Homo sapiens, pH 8.1, Thermal, DSC, Tris-HCl 20 mM

B1: Protein CutA wild type, O60888 (protein)
chain: MSGGRAPAVLLGGVASLLLSFVWMPALLPVASRLLLLPRVLLTMASGSPPTQPSPASDSGSGYVPGSVSAAFVTCPNEKVAKEIARAVVEKRLAACVNLIPQITSIYEWKGKIEEDSEVLMMIKTQSSLVPALTDFVRSVHPYEVAEVIALPVEQGNFPYLQWVRQVTESVSDSITVLP
Tm [1]: 96.4 °C | unfolding enthalpy (calorimetric) [1]: 284 kcal/mol | unfolding free energy [1]: 0 kcal/mol | denaturant midpoint (higher = more stable) (Homo sapiens, pH 8, 37 °C, GdnHCl, CD, Tris-HCl buffer, NaCl, transition: 2, reversible: yes): 2.38 M

B2: Sphingosine kinase 1 wild type, Q9NYA1 (protein)
chain: MDPAGGPRGVLPRPCRVLVLLNPRGGKGKALQLFRSHVQPLLAEAEISFTLMLTERRNHARELVRSEELGRWDALVVMSGDGLMHEVVNGLMERPDWETAIQKPLCSLPAGSGNALAASLNHYAGYEQVTNEDLLTNCTLLLCRRLLSPMNLLSLHTASGLRLFSVLSLAWGFIADVDLESEKYRRLGEMRFTLGTFLRLAALRTYRGRLAYLPVGRVGSKTPASPVVVQQGPVDAHLVPLEEPVPSHWTVVPDEDFVLVLALLHSHLGSEMFAAPMGRCAAGVMHLFYVRAGVSRAMLLRLFLAMEKGRHMEYECPYLVYVPVVAFRLEPKDGKGVFAVDGELMVSEAVQGQVHPNYFWMVSGCVEPPPSWKPQQMPPPEEPL
denaturant m value [2]: 0.42 kcal/mol/M | denaturant midpoint (higher = more stable) [2]: 2.86 M | unfolding free energy [2]: 1.32 kcal/mol | denaturant m value [3]: 0.6 kcal/mol/M | denaturant midpoint (higher = more stable) [3]: 2.94 M | unfolding free energy [3]: 1.75 kcal/mol

B3: wild type, Q40059 (protein)
chain: MSSMEKKPEGVNIGAGDRQNQKTEWPELVGKSVEEAKKVILQDKPAAQIIVLPVGTIVTMEYRIDRVRLFVDRLDNIAQVPRVG
Tm (Hordeum vulgare, pH 4.15, Thermal, CD, acetate 10 mM, reversible: no): 74.3 °C | denaturant m value [4]: 1.76 kcal/mol/M | denaturant midpoint (higher = more stable) [4]: 4.05 M | unfolding free energy [4]: 7.16 kcal/mol | denaturant m value [5]: 1.96 kcal/mol/M and 2.01 kcal/mol/M | unfolding free energy [5]: 7.41 kcal/mol and 7.27 kcal/mol and 7.22 kcal/mol

B4: Subtilisin-chymotrypsin inhibitor-2A wild type, P01053 (protein)
chain: MSSVEKKPEGVNTGAGDRHNLKTEWPELVGKSVEEAKKVILQDKPEAQIIVLPVGTIVTMEYRIDRVRLFVDKLDNIAQVPRVG
unfolding free energy (Hordeum vulgare, pH 4.2, 50 °C, GdnHCl, Fluorescence, Sodium acetate 50 mM, reversible: yes): 5.5 kcal/mol | unfolding free energy (Hordeum vulgare, pH 6.3, 17 °C, GdnHCl, Fluorescence, MES 10 mM, reversible: yes): 7.47 kcal/mol | unfolding free energy (Hordeum vulgare, pH 6.3, 21 °C, GdnHCl, Fluorescence, MES 10 mM, reversible: yes): 7.28 kcal/mol | unfolding free energy (Hordeum vulgare, pH 6.3, 25 °C, GdnHCl, Fluorescence, MES 10 mM, reversible: yes): 7.04 kcal/mol | unfolding free energy (Hordeum vulgare, pH 6.3, 29 °C, GdnHCl, Fluorescence, MES 10 mM, reversible: yes): 6.76 kcal/mol | unfolding free energy (Hordeum vulgare, pH 6.3, 32 °C, GdnHCl, Fluorescence, MES 10 mM, reversible: yes): 6.52 kcal/mol | denaturant m value [6]: 1.77 kcal/mol/M | denaturant midpoint (higher = more stable) [6]: 3.97 M | unfolding free energy [6]: 7.04 kcal/mol | denaturant m value [7]: 1.92 kcal/mol/M | unfolding free energy [7]: 7.05 kcal/mol | denaturant m value [8]: 1.82 kcal/mol/M | denaturant midpoint (higher = more stable) [8]: 4.29 M | unfolding free energy [8]: 7.81 kcal/mol

B5: Cyclin-dependent kinase 4 inhibitor D wild type, P55273 (protein)
chain: MLLEEVRAGDRLSGAAARGDVQEVRRLLHRELVHPDALNRFGKTALQVMMFGSTAIALELLKQGASPNVQDTSGTSPVHDAARTGFLDTLKVLVEHGADVNVPDGTGALPIHLAVQEGHTAVVSFLAAESDLHRRDARGLTPLELALQRGAQDLVDILQGHMVAPL
denaturant midpoint (higher = more stable) (Homo sapiens, pH 7.5, 15 °C, Urea, CD, Na-phospahate 20 mM, reversible: yes): 2.9 M | Tm (Homo sapiens, pH 7.5, Thermal, CD, sodium phosphate 20 mM, reversible: yes): 51.9 °C

B6: Glutathione S-transferase A1 wild type, P08263 (protein)
chain: MAEKPKLHYFNARGRMESTRWLLAAAGVEFEEKFIKSAEDLDKLRNDGYLMFQQVPMVEIDGMKLVQTRAILNYIASKYNLYGKDIKERALIDMYIEGIADLGEMILLLPVCPPEEKDAKLALIKEKIKNRYFPAFEKVLKSHGQDYLVGNKLSRADIHLVELLYYVEELDSSLISSFPLLKALKTRISNLPTVKKFLQPGSPRKPPMDEKSLEEARKIFRF
denaturant m value [9]: 4.2 kcal/mol/M | denaturant midpoint (higher = more stable) [9]: 4.6 M

B7: Cystatin-A wild type, P01040 (protein)
chain: MIPGGLSEAKPATPEIQEIVDKVKPQLEEKTNETYGKLEAVQYKTQVVAGTNYYIKVRAGDNKYMHLKVFKSLPGQNEDLVLTGYQVDKNKDDELTGF
Tm [10]: 94.5 °C | heat capacity change of unfolding [10]: 1.5 kcal/mol/K | unfolding enthalpy (calorimetric) [10]: 122 kcal/mol

From FireProtDB
